Experimental data reported in PMC9482650, “Quantitative fragmentomics allow affinity mapping of interactomes” (Nature Communications, 2022).

T1: MPP7, Q5T2T1
T1 sequence (Q5T2T1 134-230, limits assumed, looked up): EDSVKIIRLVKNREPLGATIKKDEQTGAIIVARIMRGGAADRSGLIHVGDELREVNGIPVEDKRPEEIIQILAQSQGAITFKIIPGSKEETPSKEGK

T2: CARD11, Q9BXL7
T2 sequence (Q9BXL7 662-765, limits assumed, looked up): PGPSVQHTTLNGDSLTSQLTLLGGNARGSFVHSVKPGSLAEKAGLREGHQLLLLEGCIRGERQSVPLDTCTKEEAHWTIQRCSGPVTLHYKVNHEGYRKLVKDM

T3: FRMPD1, Q5SYB0
T3 sequence (Q5SYB0 52-145, limits assumed, looked up): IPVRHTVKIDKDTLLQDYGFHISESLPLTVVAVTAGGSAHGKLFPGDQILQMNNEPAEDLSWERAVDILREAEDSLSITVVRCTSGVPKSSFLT

T4: APBA2_1, Q99767
T4 sequence (Q99767 563-664, limits assumed, looked up): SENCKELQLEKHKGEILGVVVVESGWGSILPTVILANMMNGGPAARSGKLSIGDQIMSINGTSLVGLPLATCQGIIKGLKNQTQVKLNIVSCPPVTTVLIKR

T5: SNTG1, Q9NSN8
T5 sequence (Q9NSN8 52-150, limits assumed, looked up): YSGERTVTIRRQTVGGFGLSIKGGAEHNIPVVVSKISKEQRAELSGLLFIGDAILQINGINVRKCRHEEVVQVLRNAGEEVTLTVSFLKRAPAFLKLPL

T6: NHERF3_4, Q5T2W1
T6 sequence (Q5T2W1 373-468, limits assumed, looked up): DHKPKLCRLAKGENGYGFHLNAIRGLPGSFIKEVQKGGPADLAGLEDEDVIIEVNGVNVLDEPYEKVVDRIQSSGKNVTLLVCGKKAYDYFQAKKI

T7: SNTA1, Q13424
T7 sequence (Q13424 82-180, limits assumed, looked up): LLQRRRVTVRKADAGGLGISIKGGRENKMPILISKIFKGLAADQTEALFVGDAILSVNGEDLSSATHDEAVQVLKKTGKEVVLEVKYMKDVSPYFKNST

T8: HTRA3, P83110
T8 sequence (P83110 354-453, limits assumed, looked up): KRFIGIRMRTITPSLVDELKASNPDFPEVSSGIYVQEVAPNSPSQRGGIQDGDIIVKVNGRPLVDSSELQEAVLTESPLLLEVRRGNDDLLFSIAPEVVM

T9: MPP6, Q9NZW5
T9 sequence (Q9NZW5 125-219, limits assumed, looked up): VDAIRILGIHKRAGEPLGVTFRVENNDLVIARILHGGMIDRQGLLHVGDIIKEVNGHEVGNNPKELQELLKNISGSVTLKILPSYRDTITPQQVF

T10: RHPN1, Q8TCX5
T10 sequence (Q8TCX5 508-602, limits assumed, looked up): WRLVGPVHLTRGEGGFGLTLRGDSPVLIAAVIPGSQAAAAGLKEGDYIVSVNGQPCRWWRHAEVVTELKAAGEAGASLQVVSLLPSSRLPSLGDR

T11: PDZD7_3, Q9H5P4
T11 sequence (Q9H5P4 857-944, limits assumed, looked up): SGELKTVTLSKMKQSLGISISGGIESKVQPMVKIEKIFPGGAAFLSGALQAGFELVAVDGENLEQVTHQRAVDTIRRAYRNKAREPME

T12: TJP3_3, O95049
T12 sequence (O95049 375-456, limits assumed, looked up): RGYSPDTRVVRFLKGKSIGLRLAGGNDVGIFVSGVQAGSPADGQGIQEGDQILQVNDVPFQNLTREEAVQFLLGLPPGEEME

T13: ARHGEF11, O15085
T13 sequence (O15085 42-136, limits assumed, looked up): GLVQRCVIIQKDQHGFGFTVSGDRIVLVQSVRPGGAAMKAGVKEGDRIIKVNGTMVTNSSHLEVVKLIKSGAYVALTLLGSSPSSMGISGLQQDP

T14: APBA3_1, O96018
T14 sequence (O96018 389-490, limits assumed, looked up): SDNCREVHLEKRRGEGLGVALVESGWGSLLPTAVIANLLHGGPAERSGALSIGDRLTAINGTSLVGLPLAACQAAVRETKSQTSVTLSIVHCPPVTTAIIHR

T15: TX1BP3, O14907
T15 sequence (O14907 10-122, limits assumed, looked up): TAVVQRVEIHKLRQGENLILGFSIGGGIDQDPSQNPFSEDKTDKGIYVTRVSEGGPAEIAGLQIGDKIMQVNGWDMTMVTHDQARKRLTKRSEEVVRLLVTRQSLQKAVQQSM

B1: PTPRG, P23470 (peptide)
chain: DPAESMESLV
B2: FZD10, Q9ULW2 (peptide)
chain: EIPAQSPTCV
B3: CIB2, O75838 (peptide)
chain: DFLSTFHIRI

What was measured:
Test in all cases: holdup assay
Design in all cases: key: below the threshold = too weak to quantify, mostly under pKd 3.1 to 4
Conditions in all cases: plain residues with an end cap or a label only (N-terminal biotin on a linker: ado-ado)
MPP7, Q5T2T1 = molecular target: T1, MPP7, Q5T2T1
MAGI2_6, Q86UL8 = molecular target: MAGI2_6, Q86UL8
Sequence of MAGI2_6, Q86UL8 (Q86UL8 1141-1229): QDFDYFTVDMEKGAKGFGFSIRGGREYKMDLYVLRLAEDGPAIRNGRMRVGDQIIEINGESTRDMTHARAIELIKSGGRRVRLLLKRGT

CARD11, Q9BXL7 = molecular target: T2, CARD11, Q9BXL7
FRMPD1, Q5SYB0 = molecular target: T3, FRMPD1, Q5SYB0
APBA2_1, Q99767 = molecular target: T4, APBA2_1, Q99767
MAGI1_1, Q96QZ7 = molecular target: MAGI1_1, Q96QZ7
Sequence of MAGI1_1, Q96QZ7 (Q96QZ7 1-106): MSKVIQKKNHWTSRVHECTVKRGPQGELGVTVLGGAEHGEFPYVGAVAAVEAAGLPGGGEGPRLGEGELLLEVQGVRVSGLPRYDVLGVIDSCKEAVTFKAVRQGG

SNTG1, Q9NSN8 = molecular target: T5, SNTG1, Q9NSN8
FRMPD2_1, Q68DX3 = molecular target: FRMPD2_1, Q68DX3
Sequence of FRMPD2_1, Q68DX3 (Q68DX3 770-861): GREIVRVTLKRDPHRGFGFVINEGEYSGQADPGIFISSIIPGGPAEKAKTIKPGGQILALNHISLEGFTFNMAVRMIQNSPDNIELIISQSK

NHERF3_4, Q5T2W1 = molecular target: T6, NHERF3_4, Q5T2W1
CASK, O14936 = molecular target: CASK, O14936
Sequence of CASK, O14936 (O14936 487-570): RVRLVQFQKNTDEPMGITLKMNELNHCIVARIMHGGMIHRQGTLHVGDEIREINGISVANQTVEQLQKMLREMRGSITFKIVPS

SNTA1, Q13424 = molecular target: T7, SNTA1, Q13424
HTRA3, P83110 = molecular target: T8, HTRA3, P83110
MPP6, Q9NZW5 = molecular target: T9, MPP6, Q9NZW5
GRIP2_4, Q9C0E4 = molecular target: GRIP2_4, Q9C0E4
Sequence of GRIP2_4, Q9C0E4 (Q9C0E4 446-548): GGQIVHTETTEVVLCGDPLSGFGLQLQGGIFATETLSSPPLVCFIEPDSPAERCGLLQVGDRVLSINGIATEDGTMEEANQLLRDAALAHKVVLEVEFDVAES

RHPN1, Q8TCX5 = molecular target: T10, RHPN1, Q8TCX5
PDZD7_3, Q9H5P4 = molecular target: T11, PDZD7_3, Q9H5P4
TJP3_3, O95049 = molecular target: T12, TJP3_3, O95049
ARHGEF11, O15085 = molecular target: T13, ARHGEF11, O15085
APBA3_1, O96018 = molecular target: T14, APBA3_1, O96018
GRIP2_7, Q9C0E4 = molecular target: GRIP2_7, Q9C0E4
Sequence of GRIP2_7, Q9C0E4 (Q9C0E4 934-1023): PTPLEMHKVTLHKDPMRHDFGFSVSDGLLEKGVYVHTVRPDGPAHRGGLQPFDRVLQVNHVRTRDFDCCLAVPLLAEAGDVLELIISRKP

TJP1_2, Q07157 = molecular target: TJP1_2, Q07157
Sequence of TJP1_2, Q07157 (Q07157 181-274): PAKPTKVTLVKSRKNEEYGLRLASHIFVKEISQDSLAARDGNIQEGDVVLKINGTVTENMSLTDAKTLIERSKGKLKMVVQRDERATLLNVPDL

TX1BP3, O14907 = molecular target: T15, TX1BP3, O14907

Binder	pKd (MPP7, Q5T2T1)	pKd (MAGI2_6, Q86UL8)	pKd (CARD11, Q9BXL7)	pKd (FRMPD1, Q5SYB0)	pKd (APBA2_1, Q99767)	pKd (MAGI1_1, Q96QZ7)	pKd (SNTG1, Q9NSN8)	pKd (FRMPD2_1, Q68DX3)	pKd (NHERF3_4, Q5T2W1)	pKd (CASK, O14936)	pKd (SNTA1, Q13424)	pKd (HTRA3, P83110)	pKd (MPP6, Q9NZW5)	pKd (GRIP2_4, Q9C0E4)	pKd (RHPN1, Q8TCX5)	pKd (PDZD7_3, Q9H5P4)	pKd (TJP3_3, O95049)	pKd (ARHGEF11, O15085)	pKd (APBA3_1, O96018)	pKd (GRIP2_7, Q9C0E4)	further results
B1	below the threshold	4.16	below the threshold	below the threshold	below the threshold	below the threshold	4.66	below the threshold	below the threshold	below the threshold	4.46	below the threshold	below the threshold	below the threshold	4.17	4.54	below the threshold	3.61	below the threshold	below the threshold	pKd (TJP1_2, Q07157): below the threshold; pKd (TX1BP3, O14907): 4.03
B2	below the threshold	3.85	3.56	3.56	below the threshold	3.79	3.83	3.92	below the threshold	3.59	3.83	3.95	below the threshold	below the threshold	below the threshold	4.3	3.78	4.2	3.57	3.7	pKd (TJP1_2, Q07157): 3.78; pKd (TX1BP3, O14907): below the threshold
B3	4.46	below the threshold	below the threshold	below the threshold	below the threshold	below the threshold	below the threshold	below the threshold	3.66	below the threshold	below the threshold	below the threshold	below the threshold	below the threshold	below the threshold	below the threshold	below the threshold	3.64	below the threshold	4.04	pKd (TJP1_2, Q07157): below the threshold; pKd (TX1BP3, O14907): below the threshold
